The results in this text go back to patent publication US20060269536A1.

The target of this assay is hK3 (PSA) (human) (UniProt P07288). The experiment in a line: cell-based or functional assay.
hK3 (PSA) (human), sequence (P07288 25-261 limits assumed): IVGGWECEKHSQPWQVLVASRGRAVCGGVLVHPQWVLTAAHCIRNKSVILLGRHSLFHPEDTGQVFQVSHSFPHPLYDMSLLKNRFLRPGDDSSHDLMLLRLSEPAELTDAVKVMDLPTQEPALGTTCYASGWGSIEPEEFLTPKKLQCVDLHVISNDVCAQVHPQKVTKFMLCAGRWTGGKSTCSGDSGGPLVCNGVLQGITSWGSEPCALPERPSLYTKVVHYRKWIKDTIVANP

B1: rACT8.20 (designed binder)
chain: MRGSHHHHHHSRHPNSPLDEENLTQENQDRGTHVDLGLASANVDFAFSLYKQLVLKAPDKNVIFSPLSISTALAFLSLGAHNTTLTEILKGLKFNLTETSEAEIHQSFQHLLRTLNQSSDELQLSMGNAMFVKEQLSLLDRFTEDAKRLYGSEAFATDFQDSAAAKKLINDYVKNGTRGKITDLIKDLDSQTMMVLVNYIFFKAKWEMPFDPQDTHQSRFYLSKKKWVMVPMMSLHHLTIPYFRDEELSCTVVELKYTGNASALFILPDQDKMEEVEAMLLPETLKRWRDSLEFREIGELYLPKFSISRDYNLNDILLQLGIEEAFTSKADLSGITGARNLAVSQVVHKAVLDVFEEGTEASAATAVKITLRSRAVETRTIVRFNRPFLMIIVPTDTQNIFFMSKVTNPKQA
With B1, the Inhibition % (residual enzyme activity, CFP-TFRSA-YFP substrate, 90 min at 37°) was 45%.
